Assay [1] has as its target T1, human FcγRI (Homo sapiens, UniProt P12314).
T1 construct: host or cells: Raji cell line (so in the source), stably expressing the receptor and NFAT-induced luciferase
Nature of the assay: Promega ADCC Reporter Bioassay, FcγRI (FIG. 7). Type of assay: cell-based. The note with it: target cells: integrin avβ3-expressing human pancreatic cancer cells; Raji effector line with NFAT-induced luciferase. As to the method:
(§1) Integrin avβ3-expressing human pancreatic cancer cells were utilized as “target cells” to assess the ability of anti-avβ3 antibodies to elicit effector cell activation using a Promega ADCC Reporter Bioassay in which “effector cell” activation is evaluated using a Raji cell line stably expressing the human FcγR I or III and NFAT-induced luciferase. Six antibody dilutions were tested per antibody, with FcγR activation shown as fold change relative to treatment with assay buffer containing no antibody.
(§2) Whereas NK cells utilize only FcγRIII/CD16 to engage antibody Fc regions, macrophages can utilize FcγRI/CD64.

The subject of assay [2] is human FcγRIII. Nature of the assay: Promega ADCC Reporter Bioassay, FcγRIII (FIG. 7). The format is cell-based. The note with it: target cells: integrin avβ3-expressing human pancreatic cancer cells; Raji effector line with NFAT-induced luciferase. The method, then: as §1, §2
Assay [3] has as its target integrin αvβ3 (Homo sapiens, UniProt P05106+P06756). As to the kind of experiment: In vitro cell adhesion assay on fibrinogen (FIG. 8). Type of assay: cell-based. As to the method:
(§3) Antibody affinity is evaluated using an in vitro cell adhesion assay. 48 well tissue culture plates were coated with the integrin avβ3 ligand fibrinogen or the integrin β1 ligand type I collagen, and 2000-10000 cells were added in the presence of each antibody for a range of 2-fold dilutions starting at 5 μg/mL in duplicate. Plates were washed at the endpoint and cells attached to the substrate detected using crystal violet.
(§4) Each antibody was tested for its ability to prevent the adhesion of integrin αvβ3-expressing tumor cells to the αvβ3-mediated adhesion to fibrinogen as well as the β1-integrin mediated adhesion to type I collagen.

For assay [4], the system named is αvβ3-expressing human lung cancer cells. As to the kind of experiment: In vitro ADCC, human NK cells as effector cells (FIG. 10B). The format is cell-based. The following applies: increasing E:T. From the text:
(A) In vitro ADCC for primary human monocyte-derived macrophages as effector cells. (B). In vitro ADCC for human NK cells as effector cells. Graphs show effect of increasing effector-to-target ratio (E:T) on death of αvβ3-expressing human lung cancer cells.
This distinction could produce a therapeutic advantage by achieving matching between the antigen (integrin αvβ3) and the types of effector cells that are particularly enriched in αvβ3-expressing tumors, such as macrophages.

The target in assay [5] is integrin β1 (Homo sapiens, UniProt P05556). As to the kind of experiment: In vitro cell adhesion assay on type I collagen (FIG. 8). Also noted: endogenous in cells. The following applies: 2-fold dilutions starting at 5 μg/mL. Type of assay: cell-based. The method, then: as §3, §4
Sequence of integrin β1 (P05556 21-798): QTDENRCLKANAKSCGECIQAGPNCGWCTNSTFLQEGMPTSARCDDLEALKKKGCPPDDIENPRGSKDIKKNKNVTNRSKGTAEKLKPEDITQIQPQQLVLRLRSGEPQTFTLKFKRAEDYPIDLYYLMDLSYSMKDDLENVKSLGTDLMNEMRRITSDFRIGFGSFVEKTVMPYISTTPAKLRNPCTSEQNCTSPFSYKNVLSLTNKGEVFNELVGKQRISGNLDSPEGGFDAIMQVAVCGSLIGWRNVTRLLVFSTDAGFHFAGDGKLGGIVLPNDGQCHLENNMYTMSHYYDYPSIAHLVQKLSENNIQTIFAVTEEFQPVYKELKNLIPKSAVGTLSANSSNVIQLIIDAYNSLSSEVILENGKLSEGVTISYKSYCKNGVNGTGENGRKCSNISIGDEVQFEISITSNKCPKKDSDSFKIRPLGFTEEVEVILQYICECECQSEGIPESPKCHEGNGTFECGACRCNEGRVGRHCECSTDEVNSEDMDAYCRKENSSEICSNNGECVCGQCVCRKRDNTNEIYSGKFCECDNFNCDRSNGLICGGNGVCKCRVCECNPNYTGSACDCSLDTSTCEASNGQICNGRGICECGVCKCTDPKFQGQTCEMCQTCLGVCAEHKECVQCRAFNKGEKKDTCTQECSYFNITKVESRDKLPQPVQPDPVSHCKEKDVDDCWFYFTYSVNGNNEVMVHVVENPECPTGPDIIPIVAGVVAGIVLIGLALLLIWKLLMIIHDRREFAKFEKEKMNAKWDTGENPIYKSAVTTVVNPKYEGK
Assay [6] relates to HCC827 αvβ3-negative human EGFR mutant lung cancer cells. As to the kind of experiment: HCC827 xenograft, delay of onset of erlotinib resistance. The note with it: erlotinib alone, oral, 6.25 mg/kg, six times/week. The format is in vivo, nu/nu mice. The method, then:
Briefly, HCC827 (5×10^6 tumor cells in 100 μl of PBS) αvβ3-negative human EGFR mutant lung cancer cells were subcutaneously injected to the right flank of female nu/nu mice (Charles River, 088, 8-10 weeks old). Tumors were measured with calipers twice per week. […] Tumors were placed into liquid nitrogen, OCT compound, or 10% formalin.

Sequence of integrin αvβ3 (P06756 31-889 limits assumed): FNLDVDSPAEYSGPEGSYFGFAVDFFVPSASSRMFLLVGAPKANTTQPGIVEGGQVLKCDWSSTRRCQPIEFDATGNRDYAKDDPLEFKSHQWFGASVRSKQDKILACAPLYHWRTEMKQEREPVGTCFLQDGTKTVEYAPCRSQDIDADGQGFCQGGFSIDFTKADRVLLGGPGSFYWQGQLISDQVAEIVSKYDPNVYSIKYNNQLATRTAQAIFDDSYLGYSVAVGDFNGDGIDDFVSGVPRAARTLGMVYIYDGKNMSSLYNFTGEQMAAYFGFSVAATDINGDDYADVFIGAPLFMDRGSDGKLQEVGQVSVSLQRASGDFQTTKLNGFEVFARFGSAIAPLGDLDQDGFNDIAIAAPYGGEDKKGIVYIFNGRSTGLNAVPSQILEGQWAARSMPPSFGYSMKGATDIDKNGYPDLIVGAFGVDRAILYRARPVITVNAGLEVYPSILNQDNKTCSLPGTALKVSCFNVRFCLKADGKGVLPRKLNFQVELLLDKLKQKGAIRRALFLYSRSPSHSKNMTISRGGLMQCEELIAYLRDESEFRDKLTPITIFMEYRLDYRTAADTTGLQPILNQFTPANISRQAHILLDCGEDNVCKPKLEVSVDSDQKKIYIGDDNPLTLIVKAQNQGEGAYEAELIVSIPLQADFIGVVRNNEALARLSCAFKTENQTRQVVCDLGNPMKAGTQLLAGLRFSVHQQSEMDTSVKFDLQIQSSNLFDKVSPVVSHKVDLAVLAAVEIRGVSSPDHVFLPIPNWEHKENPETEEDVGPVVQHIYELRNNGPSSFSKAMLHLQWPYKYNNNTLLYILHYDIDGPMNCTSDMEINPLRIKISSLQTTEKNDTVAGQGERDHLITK
Sequence of integrin αvβ3 (P06756 891-1048 limits assumed): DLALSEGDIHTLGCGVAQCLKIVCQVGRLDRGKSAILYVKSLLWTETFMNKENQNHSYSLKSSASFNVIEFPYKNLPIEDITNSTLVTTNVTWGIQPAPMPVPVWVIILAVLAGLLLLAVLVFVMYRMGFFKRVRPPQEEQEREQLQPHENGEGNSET
Sequence of integrin αvβ3 (P05106 27-788): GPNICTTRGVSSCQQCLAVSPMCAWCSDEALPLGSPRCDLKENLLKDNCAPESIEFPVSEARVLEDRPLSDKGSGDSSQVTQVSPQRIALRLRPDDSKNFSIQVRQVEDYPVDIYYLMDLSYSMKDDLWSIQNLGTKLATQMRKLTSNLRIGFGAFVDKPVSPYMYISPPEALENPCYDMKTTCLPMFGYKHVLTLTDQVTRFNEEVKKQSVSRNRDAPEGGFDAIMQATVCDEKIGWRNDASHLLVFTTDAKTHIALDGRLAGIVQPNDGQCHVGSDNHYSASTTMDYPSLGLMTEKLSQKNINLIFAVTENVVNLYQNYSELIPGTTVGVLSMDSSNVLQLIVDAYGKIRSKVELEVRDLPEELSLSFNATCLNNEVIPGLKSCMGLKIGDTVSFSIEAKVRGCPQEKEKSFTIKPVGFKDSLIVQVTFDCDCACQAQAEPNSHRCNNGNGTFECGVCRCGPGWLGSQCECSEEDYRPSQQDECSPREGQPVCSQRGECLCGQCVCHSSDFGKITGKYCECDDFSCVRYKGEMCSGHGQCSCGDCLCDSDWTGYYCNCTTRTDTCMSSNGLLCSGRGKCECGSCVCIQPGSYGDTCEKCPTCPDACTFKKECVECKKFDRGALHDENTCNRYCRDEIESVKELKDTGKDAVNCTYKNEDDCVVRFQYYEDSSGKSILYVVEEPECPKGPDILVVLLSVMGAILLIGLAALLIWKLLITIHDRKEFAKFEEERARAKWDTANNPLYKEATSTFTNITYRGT
T1 sequence (P12314 16-374): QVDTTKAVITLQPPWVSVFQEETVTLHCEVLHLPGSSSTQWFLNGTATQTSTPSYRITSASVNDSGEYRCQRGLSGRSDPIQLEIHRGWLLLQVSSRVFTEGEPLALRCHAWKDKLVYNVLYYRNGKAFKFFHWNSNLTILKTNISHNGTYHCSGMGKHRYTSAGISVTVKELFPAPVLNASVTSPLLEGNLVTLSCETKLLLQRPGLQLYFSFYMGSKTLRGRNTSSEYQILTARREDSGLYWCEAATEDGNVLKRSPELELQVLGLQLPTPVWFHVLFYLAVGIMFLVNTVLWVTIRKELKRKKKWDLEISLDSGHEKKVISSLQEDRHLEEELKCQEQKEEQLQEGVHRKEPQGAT

On to “hLM609-hIgG1: humanized LM609, hIgG1 isotype (etaracizumab/Vitaxin); heavy chain SEQ ID NO:9, light chain SEQ ID NO:10 [reference compound]”, for which, in assay [1], the “FcγRI activation on effector cells” value is given as “lower levels of engagement”. In addition, the “FcγRIII activation on effector cells” value in assay [2] was “can strongly activate FcγRIII”. Also, in assay [3] (2-fold dilutions starting at 5 μg/mL), the “αvβ3-mediated adhesion to fibrinogen” value was “blocked adhesion to fibrinogen”. In addition, the “antibody affinity, shown by ability to block αvβ3-dependent cell adhesion” value in assay [3] (comparison of isotype variants) is listed as “equivalent”. For the same compound, the “ADCC with human NK cells as effector cells” value in assay [4] is listed as “engages NK cells”. Moreover, in assay [5], the “β1-integrin mediated adhesion to type I collagen” value is reported as “without disrupting β1-mediated adhesion to collagen”.
Take `C#Cc1cccc(Nc2ncnc3cc(OCCOC)c(OCCOC)cc23)c1` [erlotinib]: in assay [6], the tumor size result is recorded as “initial reduction in tumor size, this is followed by an eventual tumor re-growth”.

These data come from patent US20230140868A1, “COMPOSITIONS AND METHODS FOR TREATING CANCER” (Alpha Beta Holdings, LLC, priority 2020, published 2023).
